This note sets out measurements from paper PMC10663500, “High-throughput analysis system of interaction kinetics for data-driven antibody design” (Scientific Reports, 2023).

A value given as a limit tells only on which side of the number the result lay.

In assay [1] the target is T1, human programmed cell death protein 1 (hPD-1) C93S (aa 24-167) (Homo sapiens, UniProt Q15116, C93S).
T1 construct: made as a fusion with a TEV site and human Fc; the Fc was cut off with TEV protease; source: Expi293F, purified (Protein A, TEV cleavage of Fc, SEC; monomer fractions); not shown: Fc (human), C-terminal, cleaved
In words: SPR; Carterra LSA; Fab from the ammonium sulfate precipitate of the culture supernatant immobilised on a NiHC200M chip; hPD-1 (1-1024 nM) or mPD-1-Fc (4-1024 nM) as analyte, fourfold dilution series, no regeneration; HBS-EP pH 7.4, 25 °C; medians over the spots of a construct, KD = koff/kon. As to conditions: one partner purified. A digest of the protocol: (§1)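 On a Carterra LSA at 25 °C, duplicate captures of Fabs were made on a NiHC200M chip; the Fabs came from Brevibacillus culture supernatants, were precipitated with ammonium sulfate and were redissolved in HBS-EP. Fourfold series of human PD-1 (1–1024 nM) or mouse PD-1-Fc (4–1024 nM) were passed over without regeneration, with 10 min association and 5 min dissociation. Binders that were not confirmed were assigned kon 10^3 […] and koff 10^−2 s^−1. The kdka model, run with slow- or fast-dissociation settings and keeping the better fit, gave the rates, and KD was taken as koff/kon from the median values for each construct.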
(In SPR one partner is held on a chip, and binding of the other changes the refractive index at the surface.)

In assay [2] the target is T2, mouse programmed cell death protein 1 Fc fusion protein (mPD-1-Fc), mPD-1 C60S (aa 25-167) (Mus musculus, UniProt Q02242, stabilised).
T2 construct: not cleaved; source: Expi293F, purified (Protein A, SEC; dimeric fraction); not shown: Fc (human), C-terminal, kept
The assay is described as above. As to conditions: one partner purified. A digest of the protocol: as §1

T1 sequence (Q15116 24-167 C93S): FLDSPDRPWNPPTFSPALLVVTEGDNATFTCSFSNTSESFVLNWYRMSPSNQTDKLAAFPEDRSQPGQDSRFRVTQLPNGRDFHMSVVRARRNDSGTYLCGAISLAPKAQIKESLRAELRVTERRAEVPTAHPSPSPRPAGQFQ

B1: toripalimab Fab H.M34Y (Fab, V domains shown)
VH: QGQLVQSGAEVKKPGASVKVSCKASGYTFTDYEYHWVRQAPIHGLEWIGVIESETGGTAYNQKFKGRVTITADKSTSTAYMELSSLRSEDTAVYYCAREGITTVATTYYWYFDVWGQGTTVTVSS
VL: DVVMTQSPLSLPVTLGQPASISCRSSQSIVHSNGNTYLEWYLQKPGQSPQLLIYKVSNRFSGVPDRFSGSGSGTDFTLKISRVEAEDVGVYYCFQGSHVPLTFGQGTKLEIK
notes: heavy chain of Sm3 with this change; numbers count from the chain's first residue; as the light chain of Sm3; source: Brevibacillus, culture supernatant (ammonium sulfate precipitate); not shown: 6xHis, C-terminal, kept; 6xHN, C-terminal, kept
For B1, in assay [1], the Kd (usually the free concentration of one partner at which half of the binding sites on the other are occupied at equilibrium, for simple one-to-one binding) is < 0.414 nM; the koff (as a rule, the rate constant with which the complex falls apart) was < 1e-05 s⁻¹; the kon (in general, the second-order rate constant of association) turned out to be 24200 M⁻¹ s⁻¹. Moreover, in assay [2], the Kd came out at 164 nM, the koff came to 0.00793 s⁻¹ and the kon was 48500 M⁻¹ s⁻¹.

B2: toripalimab Fab L.S28Y (Fab, V domains shown)
VH: QGQLVQSGAEVKKPGASVKVSCKASGYTFTDYEMHWVRQAPIHGLEWIGVIESETGGTAYNQKFKGRVTITADKSTSTAYMELSSLRSEDTAVYYCAREGITTVATTYYWYFDVWGQGTTVTVSS
VL: DVVMTQSPLSLPVTLGQPASISCRSSQYIVHSNGNTYLEWYLQKPGQSPQLLIYKVSNRFSGVPDRFSGSGSGTDFTLKISRVEAEDVGVYYCFQGSHVPLTFGQGTKLEIK
notes: as the heavy chain of Sm3; light chain of Sm3 with this change; numbers count from the chain's first residue; source: Brevibacillus, culture supernatant (ammonium sulfate precipitate); not shown: 6xHis, C-terminal, kept; 6xHN, C-terminal, kept
In the case of B2, in assay [1], the Kd was < 0.792 nM, the koff is < 1e-05 s⁻¹ and the association rate constant (kon) was found to be 12600 M⁻¹ s⁻¹. In assay [2], this molecule displayed a Kd of 137 nM, a koff of 0.00438 s⁻¹ and a kon of 31900 M⁻¹ s⁻¹.

B3: toripalimab Fab L.V30A (Fab, V domains shown)
VH: QGQLVQSGAEVKKPGASVKVSCKASGYTFTDYEMHWVRQAPIHGLEWIGVIESETGGTAYNQKFKGRVTITADKSTSTAYMELSSLRSEDTAVYYCAREGITTVATTYYWYFDVWGQGTTVTVSS
VL: DVVMTQSPLSLPVTLGQPASISCRSSQSIAHSNGNTYLEWYLQKPGQSPQLLIYKVSNRFSGVPDRFSGSGSGTDFTLKISRVEAEDVGVYYCFQGSHVPLTFGQGTKLEIK
notes: as for B2
In assay [1], B3 showed a Kd of 2.21 nM, a koff of 6.23e-05 s⁻¹ and a kon of 28200 M⁻¹ s⁻¹. In assay [2], this molecule gave a Kd of 255 nM, a koff of 0.00954 s⁻¹ and a kon of 37400 M⁻¹ s⁻¹.

B4: toripalimab Fab L.N33Y (Fab, V domains shown)
VH: QGQLVQSGAEVKKPGASVKVSCKASGYTFTDYEMHWVRQAPIHGLEWIGVIESETGGTAYNQKFKGRVTITADKSTSTAYMELSSLRSEDTAVYYCAREGITTVATTYYWYFDVWGQGTTVTVSS
VL: DVVMTQSPLSLPVTLGQPASISCRSSQSIVHSYGNTYLEWYLQKPGQSPQLLIYKVSNRFSGVPDRFSGSGSGTDFTLKISRVEAEDVGVYYCFQGSHVPLTFGQGTKLEIK
notes: as for B2
As for B4, in assay [1], the Kd was < 0.585 nM, the koff is < 1e-05 s⁻¹ and the association rate constant (kon) came out at 17100 M⁻¹ s⁻¹. In assay [2], this molecule returned a Kd of 192 nM, a koff of 0.00979 s⁻¹ and a kon of 50900 M⁻¹ s⁻¹.

B5: toripalimab Fab L.S28A (Fab, V domains shown)
VH: QGQLVQSGAEVKKPGASVKVSCKASGYTFTDYEMHWVRQAPIHGLEWIGVIESETGGTAYNQKFKGRVTITADKSTSTAYMELSSLRSEDTAVYYCAREGITTVATTYYWYFDVWGQGTTVTVSS
VL: DVVMTQSPLSLPVTLGQPASISCRSSQAIVHSNGNTYLEWYLQKPGQSPQLLIYKVSNRFSGVPDRFSGSGSGTDFTLKISRVEAEDVGVYYCFQGSHVPLTFGQGTKLEIK
notes: as for B2
On to B5, for which, in assay [1], the Kd was < 0.632 nM, the koff was < 1e-05 s⁻¹ and the on-rate (kon) came to 15800 M⁻¹ s⁻¹. Further, in assay [2], binding was characterised by a dissociation constant (Kd) of 96.3 nM, the koff is 0.00303 s⁻¹ and the kon is 31400 M⁻¹ s⁻¹.

B6: toripalimab Fab L.G34Y (Fab, V domains shown)
VH: QGQLVQSGAEVKKPGASVKVSCKASGYTFTDYEMHWVRQAPIHGLEWIGVIESETGGTAYNQKFKGRVTITADKSTSTAYMELSSLRSEDTAVYYCAREGITTVATTYYWYFDVWGQGTTVTVSS
VL: DVVMTQSPLSLPVTLGQPASISCRSSQSIVHSNYNTYLEWYLQKPGQSPQLLIYKVSNRFSGVPDRFSGSGSGTDFTLKISRVEAEDVGVYYCFQGSHVPLTFGQGTKLEIK
notes: as for B2
Turning to B6, in assay [1], the Kd is < 0.445 nM, the koff was < 1e-05 s⁻¹ and the kon came out at 22500 M⁻¹ s⁻¹. In addition, in assay [2], the Kd worked out at 154 nM, the koff was 0.00613 s⁻¹ and the kon is 39900 M⁻¹ s⁻¹.

B7: toripalimab Fab L.I29Y (Fab, V domains shown)
VH: QGQLVQSGAEVKKPGASVKVSCKASGYTFTDYEMHWVRQAPIHGLEWIGVIESETGGTAYNQKFKGRVTITADKSTSTAYMELSSLRSEDTAVYYCAREGITTVATTYYWYFDVWGQGTTVTVSS
VL: DVVMTQSPLSLPVTLGQPASISCRSSQSYVHSNGNTYLEWYLQKPGQSPQLLIYKVSNRFSGVPDRFSGSGSGTDFTLKISRVEAEDVGVYYCFQGSHVPLTFGQGTKLEIK
notes: as for B2
In assay [1], B7 returned a Kd of 30.4 nM, a koff of 0.000378 s⁻¹ and a kon of 12400 M⁻¹ s⁻¹. In assay [2], this molecule registered a Kd of 80.6 nM, a koff of 0.00575 s⁻¹ and a kon of 71400 M⁻¹ s⁻¹.

B8: toripalimab Fab L.I29A (Fab, V domains shown)
VH: QGQLVQSGAEVKKPGASVKVSCKASGYTFTDYEMHWVRQAPIHGLEWIGVIESETGGTAYNQKFKGRVTITADKSTSTAYMELSSLRSEDTAVYYCAREGITTVATTYYWYFDVWGQGTTVTVSS
VL: DVVMTQSPLSLPVTLGQPASISCRSSQSAVHSNGNTYLEWYLQKPGQSPQLLIYKVSNRFSGVPDRFSGSGSGTDFTLKISRVEAEDVGVYYCFQGSHVPLTFGQGTKLEIK
notes: as for B2
B8: in assay [1], the Kd is < 0.466 nM, the koff is < 1e-05 s⁻¹ and the kon stood at 21500 M⁻¹ s⁻¹. In assay [2], this molecule had a Kd of 64 nM, a koff of 0.00268 s⁻¹ and a kon of 41800 M⁻¹ s⁻¹.

B9: toripalimab Fab L.V30Y (Fab, V domains shown)
VH: QGQLVQSGAEVKKPGASVKVSCKASGYTFTDYEMHWVRQAPIHGLEWIGVIESETGGTAYNQKFKGRVTITADKSTSTAYMELSSLRSEDTAVYYCAREGITTVATTYYWYFDVWGQGTTVTVSS
VL: DVVMTQSPLSLPVTLGQPASISCRSSQSIYHSNGNTYLEWYLQKPGQSPQLLIYKVSNRFSGVPDRFSGSGSGTDFTLKISRVEAEDVGVYYCFQGSHVPLTFGQGTKLEIK
notes: as for B2
B9: in assay [1], the Kd was determined as 0.91 nM, the koff was 1.6e-05 s⁻¹ and the kon stood at 17600 M⁻¹ s⁻¹. In assay [2], this molecule returned a Kd of 173 nM, a koff of 0.00719 s⁻¹ and a kon of 41500 M⁻¹ s⁻¹.

B10: toripalimab Fab L.G34A (Fab, V domains shown)
VH: QGQLVQSGAEVKKPGASVKVSCKASGYTFTDYEMHWVRQAPIHGLEWIGVIESETGGTAYNQKFKGRVTITADKSTSTAYMELSSLRSEDTAVYYCAREGITTVATTYYWYFDVWGQGTTVTVSS
VL: DVVMTQSPLSLPVTLGQPASISCRSSQSIVHSNANTYLEWYLQKPGQSPQLLIYKVSNRFSGVPDRFSGSGSGTDFTLKISRVEAEDVGVYYCFQGSHVPLTFGQGTKLEIK
notes: as for B2
B10: in assay [1], the Kd was found to be 2.35 nM, the koff was found to be 4.8e-05 s⁻¹ and the kon turned out to be 20500 M⁻¹ s⁻¹. Besides, in assay [2], the Kd came to 202 nM, the koff came to 0.00961 s⁻¹ and the kon came out at 47500 M⁻¹ s⁻¹.

B11: toripalimab Fab L.S32A (Fab, V domains shown)
VH: QGQLVQSGAEVKKPGASVKVSCKASGYTFTDYEMHWVRQAPIHGLEWIGVIESETGGTAYNQKFKGRVTITADKSTSTAYMELSSLRSEDTAVYYCAREGITTVATTYYWYFDVWGQGTTVTVSS
VL: DVVMTQSPLSLPVTLGQPASISCRSSQSIVHANGNTYLEWYLQKPGQSPQLLIYKVSNRFSGVPDRFSGSGSGTDFTLKISRVEAEDVGVYYCFQGSHVPLTFGQGTKLEIK
notes: as for B2
Turning to B11, in assay [1], the Kd is < 1.35 nM, the koff was < 1e-05 s⁻¹ and the kon came out at 7410 M⁻¹ s⁻¹. In assay [2], this molecule returned a Kd of 185 nM, an off-rate (koff) of 0.0077 s⁻¹ and a kon of 41600 M⁻¹ s⁻¹.

B12: toripalimab Fab L.N33A (Fab, V domains shown)
VH: QGQLVQSGAEVKKPGASVKVSCKASGYTFTDYEMHWVRQAPIHGLEWIGVIESETGGTAYNQKFKGRVTITADKSTSTAYMELSSLRSEDTAVYYCAREGITTVATTYYWYFDVWGQGTTVTVSS
VL: DVVMTQSPLSLPVTLGQPASISCRSSQSIVHSAGNTYLEWYLQKPGQSPQLLIYKVSNRFSGVPDRFSGSGSGTDFTLKISRVEAEDVGVYYCFQGSHVPLTFGQGTKLEIK
notes: as for B2
Consider B12, for which, in assay [1], the Kd was < 0.341 nM, the koff is < 1e-05 s⁻¹ and the kon came out at 29300 M⁻¹ s⁻¹. In assay [2], the Kd was found to be 278 nM, the koff was determined as 0.0135 s⁻¹ and the kon was found to be 48400 M⁻¹ s⁻¹.

B13: toripalimab Fab L.S32Y (Fab, V domains shown)
VH: QGQLVQSGAEVKKPGASVKVSCKASGYTFTDYEMHWVRQAPIHGLEWIGVIESETGGTAYNQKFKGRVTITADKSTSTAYMELSSLRSEDTAVYYCAREGITTVATTYYWYFDVWGQGTTVTVSS
VL: DVVMTQSPLSLPVTLGQPASISCRSSQSIVHYNGNTYLEWYLQKPGQSPQLLIYKVSNRFSGVPDRFSGSGSGTDFTLKISRVEAEDVGVYYCFQGSHVPLTFGQGTKLEIK
notes: as for B2
In the case of B13, in assay [1], the Kd was < 0.678 nM, the koff is < 1e-05 s⁻¹ and the kon was 14800 M⁻¹ s⁻¹. In assay [2], this molecule returned a Kd of 95.6 nM, a koff of 0.00346 s⁻¹ and a kon of 36100 M⁻¹ s⁻¹.
